Literature values in article PMC3061301.

Target: PTP-BL (Mus musculus) (UniProt Q64512)
Assay: surface plasmon resonance

UniProt Q64512, sequence (Q64512 whole entry): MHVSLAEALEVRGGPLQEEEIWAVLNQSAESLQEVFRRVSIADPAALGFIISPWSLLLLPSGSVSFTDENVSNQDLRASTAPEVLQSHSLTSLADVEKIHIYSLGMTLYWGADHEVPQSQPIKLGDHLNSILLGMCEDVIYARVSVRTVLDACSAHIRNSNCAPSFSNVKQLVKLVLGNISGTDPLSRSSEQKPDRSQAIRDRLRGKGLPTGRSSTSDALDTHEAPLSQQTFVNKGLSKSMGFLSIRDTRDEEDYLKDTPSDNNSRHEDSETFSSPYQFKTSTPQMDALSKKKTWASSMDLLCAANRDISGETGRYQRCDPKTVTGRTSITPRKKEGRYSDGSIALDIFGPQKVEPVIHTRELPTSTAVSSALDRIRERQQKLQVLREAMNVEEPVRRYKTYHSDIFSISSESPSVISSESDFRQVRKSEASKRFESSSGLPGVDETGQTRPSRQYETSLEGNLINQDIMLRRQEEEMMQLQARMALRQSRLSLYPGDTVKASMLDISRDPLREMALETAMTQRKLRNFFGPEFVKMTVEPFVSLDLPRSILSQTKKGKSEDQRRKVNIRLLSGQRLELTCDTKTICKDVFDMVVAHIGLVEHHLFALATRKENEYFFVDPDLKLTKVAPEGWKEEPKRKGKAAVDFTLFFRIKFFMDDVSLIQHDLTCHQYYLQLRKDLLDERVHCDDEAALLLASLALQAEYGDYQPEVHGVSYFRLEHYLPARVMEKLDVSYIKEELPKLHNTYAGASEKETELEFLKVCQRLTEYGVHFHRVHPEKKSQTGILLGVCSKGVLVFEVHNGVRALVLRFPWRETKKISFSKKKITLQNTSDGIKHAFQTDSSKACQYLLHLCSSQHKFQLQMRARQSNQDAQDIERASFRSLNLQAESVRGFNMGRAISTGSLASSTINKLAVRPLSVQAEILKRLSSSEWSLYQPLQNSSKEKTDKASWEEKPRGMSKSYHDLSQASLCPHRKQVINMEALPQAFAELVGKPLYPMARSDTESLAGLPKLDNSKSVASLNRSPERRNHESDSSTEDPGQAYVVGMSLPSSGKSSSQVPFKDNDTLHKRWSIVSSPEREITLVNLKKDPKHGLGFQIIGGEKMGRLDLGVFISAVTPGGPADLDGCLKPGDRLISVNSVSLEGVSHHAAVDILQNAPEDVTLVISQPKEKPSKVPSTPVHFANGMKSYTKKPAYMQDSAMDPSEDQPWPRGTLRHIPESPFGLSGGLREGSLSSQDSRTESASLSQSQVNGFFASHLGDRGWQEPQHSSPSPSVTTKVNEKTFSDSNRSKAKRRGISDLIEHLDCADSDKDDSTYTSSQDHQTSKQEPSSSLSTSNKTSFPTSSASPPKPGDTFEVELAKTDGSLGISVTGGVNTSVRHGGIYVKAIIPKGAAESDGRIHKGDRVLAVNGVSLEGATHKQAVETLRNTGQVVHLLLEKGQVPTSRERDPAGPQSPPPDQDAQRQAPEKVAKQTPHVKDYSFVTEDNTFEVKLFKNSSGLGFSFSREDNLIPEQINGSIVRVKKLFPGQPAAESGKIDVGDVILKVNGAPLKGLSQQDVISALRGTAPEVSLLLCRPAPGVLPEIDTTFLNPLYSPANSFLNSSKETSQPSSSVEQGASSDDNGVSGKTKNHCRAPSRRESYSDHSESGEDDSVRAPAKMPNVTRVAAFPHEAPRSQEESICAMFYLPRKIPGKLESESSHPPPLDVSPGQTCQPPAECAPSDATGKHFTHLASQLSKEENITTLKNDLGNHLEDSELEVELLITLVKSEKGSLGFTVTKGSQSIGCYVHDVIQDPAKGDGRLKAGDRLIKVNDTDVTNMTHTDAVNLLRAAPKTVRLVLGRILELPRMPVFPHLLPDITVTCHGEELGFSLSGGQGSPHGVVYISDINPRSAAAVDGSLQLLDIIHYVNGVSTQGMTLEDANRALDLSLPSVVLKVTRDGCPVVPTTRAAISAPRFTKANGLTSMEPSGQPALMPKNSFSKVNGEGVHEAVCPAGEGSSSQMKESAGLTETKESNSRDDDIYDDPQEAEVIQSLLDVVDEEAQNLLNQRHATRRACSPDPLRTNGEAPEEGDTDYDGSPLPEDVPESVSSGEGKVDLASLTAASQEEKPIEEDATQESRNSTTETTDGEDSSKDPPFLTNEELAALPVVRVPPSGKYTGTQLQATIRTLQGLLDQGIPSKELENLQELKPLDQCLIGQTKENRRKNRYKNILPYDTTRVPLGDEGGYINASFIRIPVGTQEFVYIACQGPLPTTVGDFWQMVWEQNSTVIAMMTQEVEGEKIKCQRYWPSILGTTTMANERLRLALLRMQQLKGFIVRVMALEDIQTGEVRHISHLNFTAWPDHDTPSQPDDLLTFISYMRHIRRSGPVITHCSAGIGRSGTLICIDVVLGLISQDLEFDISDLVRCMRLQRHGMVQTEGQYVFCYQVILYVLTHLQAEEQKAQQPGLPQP

Kd: 8 nM
Substance: APC C-terminal 19 amino acids (from UniProt P25054)
